Laboratory results reported in article PMC10397247.
Blank lines part the entries; values can stand above or below the binder they belong to.

Key:
Test in all cases: two-hybrid library CCmax;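 note: natural log of median RNA to DNA barcode read ratio; higher means stronger binding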
Details in all cases: mean of both orientations
P4S = biological target: T1, P4S
T1 chain: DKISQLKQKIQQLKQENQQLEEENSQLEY

P4 = biological target: T2, P4
T2 chain: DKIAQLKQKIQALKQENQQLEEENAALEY

Core_IIII-es_KKEK = biological target: T3, Core_IIII-es_KKEK
T3 chain: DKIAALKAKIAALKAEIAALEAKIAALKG

Core_INNN-es_KEEK = biological target: T4, Core_INNN-es_KEEK
T4 chain: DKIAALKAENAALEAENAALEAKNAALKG

interaction score (P4S): 0.00696
interaction score (P4): 0.472
Binder: DEIQQLEEEISQLEQKNSQLKEKNQQLKY [P3S]

interaction score (Core_IIII-es_KKEK): 2.36
Binder: DEIAALEAEIAALEAKIAALKAEIAALEG [Core_IIII-es_EEKE]

interaction score (Core_INNN-es_KEEK): 1.91
Binder: DEIAALEAKNAALKAKNAALKAENAALEG [Core_INNN-es_EKKE]
